Here are results for 56 variants from the MegaScale stability set (Tsuboyama et al. 2023).

The labels stand for the following.
B1: r4_43_TrROS_Hall (parent)
chain: DLVTIKVPLENLEEIKKAAEKAGFKIVSISYDKENKEVTIVIEKKK

Variants of B1 are the subject of the data set. Briefly: folding stability dG (cDNA display proteolysis); higher = more stable. The note with it: PBS, room temperature.
With DLVTIKVHLENLEEIKKAAEKAGFKIVSISYDKENKEVTIVIEKKK, the “folding stability dG” value is 4.12 kcal/mol.
Consider DLVTIKVSLENLEEIKKAAEKAGFKIVSISYDKENKEVTIVIEKKK, for which the “folding stability dG” value came to 3.49 kcal/mol.
As for DLVTIKVELENLEEIKKAAEKAGFKIVSISYDKENKEVTIVIEKKK, the “folding stability dG” value was 3.19 kcal/mol.
In the case of DLVTIKVCLENLEEIKKAAEKAGFKIVSISYDKENKEVTIVIEKKK it was 3.58 kcal/mol; in that of DLVTIKVPLENLEEIVKAAEKAGFKIVSISYDKENKEVTIVIEKKK, 3.6 kcal/mol.
Under DLVTIKVPLENLEEIKKAAEKAGFKIVSISYDKENKFVTIVIEKKK stands 3.93 kcal/mol; under DLVTIKVPLENLEEIKKAAEKAGFKIVSISYDKENKEVTIVIEIKK, 3.93 kcal/mol.
For DLVTNKVPLENLEEIKKAAEKAGFKIVSISYDKENKEVTIVIEKKK, the “folding stability dG” value was determined as 2.61 kcal/mol.
In the case of DLVTIHVPLENLEEIKKAAEKAGFKIVSISYDKENKEVTIVIEKKK, the “folding stability dG” value was 3.71 kcal/mol.
Under DLVTIRVPLENLEEIKKAAEKAGFKIVSISYDKENKEVTIVIEKKK stands 3.84 kcal/mol; under DLVTIKVPLENLEEIKKAAEKAGFKIVSISYQKENKEVTIVIEKKK, 3.56 kcal/mol.
Regarding DLVTIKVPLENLEEIKKAAEKAGFKIVSISYSKENKEVTIVIEKKK, the “folding stability dG” value turned out to be 4.21 kcal/mol.
Turning to DLVTIKVPLENLEEIKKAAEKAGFKIVSISYYKENKEVTIVIEKKK, the “folding stability dG” value came out at 3.65 kcal/mol.
Under DLVTIKVPLENLEEIKKAAEKAGFKIVSISYVKENKEVTIVIEKKK stands 3.33 kcal/mol.
Under DLVTIKVPLENLEEIKKAAEKAGFKIVSISYDKENKEQTIVIEKKK stands 1.74 kcal/mol; under DLVTIKVPLENLEEIKKAAEKAGFKIVSISYDKENKESTIVIEKKK, 3.12 kcal/mol; under DLVTIKSPLENLEEIKKAAEKAGFKIVSISYDKENKEVTIVIEKKK, 3.71 kcal/mol.
As for DLVTIKVPLENLEEKKKAAEKAGFKIVSISYDKENKEVTIVIEKKK, the “folding stability dG” value is 3.37 kcal/mol.
For the variant DLVTIKVPLENLEEIKKAAEYAGFKIVSISYDKENKEVTIVIEKKK, the “folding stability dG” value turned out to be 4.25 kcal/mol.
In the case of DLVTIKVPLENLEEIKKAAEKAGFKIVSISYDKENKEVTIVIEKKM it was 3.55 kcal/mol; in that of DSVTIKVPLENLEEIKKAAEKAGFKIVSISYDKENKEVTIVIEKKK, 3.39 kcal/mol.
For DLVTIKVPLLNLEEIKKAAEKAGFKIVSISYDKENKEVTIVIEKKK, the “folding stability dG” value worked out at 3.59 kcal/mol.
In the case of DLVTIKVPLENLEEIKKKAEKAGFKIVSISYDKENKEVTIVIEKKK it was 3.86 kcal/mol.
In the case of DLVTIKVPLENLEEIKKSAEKAGFKIVSISYDKENKEVTIVIEKKK it was 3.65 kcal/mol.
Under DLVTIKVPLENLEEIKKRAEKAGFKIVSISYDKENKEVTIVIEKKK stands 3.72 kcal/mol; under DLVTIKVPLENLEEIKKAAEKAGFKFVSISYDKENKEVTIVIEKKK, 3.31 kcal/mol; under DLVTIKVPLENLEEIKKAAEKAGFKTVSISYDKENKEVTIVIEKKK, 2.76 kcal/mol.
Turning to DLVTIKVPLENLEEIKKAAEKAGFKIVSISYDTENKEVTIVIEKKK, the “folding stability dG” value turned out to be 3.41 kcal/mol.
For the variant DLVTIKVPLENLEEIKKAAEKSGFKIVSISYDKENKEVTIVIEKKK, the “folding stability dG” value came out at 3.56 kcal/mol.
Consider DLVTIKVPLENLEEIKKAAEKYGFKIVSISYDKENKEVTIVIEKKK, for which the “folding stability dG” value was 3.95 kcal/mol.
In the case of DLETIKVPLENLEEIKKAAEKAGFKIVSISYDKENKEVTIVIEKKK it was 3.1 kcal/mol; in that of DLRTIKVPLENLEEIKKAAEKAGFKIVSISYDKENKEVTIVIEKKK, 3.4 kcal/mol.
Under DLMTIKVPLENLEEIKKAAEKAGFKIVSISYDKENKEVTIVIEKKK stands 3.66 kcal/mol.
In the case of DLVTIKVPLENLEEIKKAAEKAGFKIVSFSYDKENKEVTIVIEKKK it was 4.07 kcal/mol.
Consider DLVTIKVPLENLEEIKKAAEKAGFKIVSIHYDKENKEVTIVIEKKK, for which the “folding stability dG” value amounted to 3.68 kcal/mol.
For DLVTIKVPLENLEEIKKAAEKAGFKIVSILYDKENKEVTIVIEKKK, the “folding stability dG” value came out at 3.74 kcal/mol.
As to DLVTIKVPLENLEEIKKAAEKAGFKIVSISYDKENKEVKIVIEKKK, the “folding stability dG” value came to 3.42 kcal/mol.
For DLVTIKVPLENLEEIKKAAEKAGFKIVSISYDKENKEVLIVIEKKK, the “folding stability dG” value is 3.36 kcal/mol.
As to DLVTIKVPLENLEEIKKAAEKAGFKIVSISYDKEPKEVTIVIEKKK, the “folding stability dG” value turned out to be 3.2 kcal/mol.
In the case of DLVTIKVPLENLEEIKKAAQKAGFKIVSISYDKENKEVTIVIEKKK it was 3.28 kcal/mol.
In the case of DLVTIKVPLENLCEIKKAAEKAGFKIVSISYDKENKEVTIVIEKKK it was 3.74 kcal/mol; in that of DLVTIKVPLENLEEIKLAAEKAGFKIVSISYDKENKEVTIVIEKKK, 3.73 kcal/mol.
Under DLVTIKVPLENLEEIKHAAEKAGFKIVSISYDKENKEVTIVIEKKK stands 3.83 kcal/mol; under DLVTIKVPLENLEEIKKAQEKAGFKIVSISYDKENKEVTIVIEKKK, 3.37 kcal/mol.
On to DLVTIKVPYENLEEIKKAAEKAGFKIVSISYDKENKEVTIVIEKKK, for which the “folding stability dG” value was 3.39 kcal/mol.
With DLVTIKVPDENLEEIKKAAEKAGFKIVSISYDKENKEVTIVIEKKK, the “folding stability dG” value turned out to be 3.42 kcal/mol.
Under DLVTIKVPLENLEEIKKAAEKAGNKIVSISYDKENKEVTIVIEKKK stands 2.56 kcal/mol.
Under DLVTIKVPLENLEEIKKAAEKAGFKIVSISYDKENKEVTLVIEKKK stands 3.98 kcal/mol.
In the case of FLVTIKVPLENLEEIKKAAEKAGFKIVSISYDKENKEVTIVIEKKK it was 3.9 kcal/mol.
For HLVTIKVPLENLEEIKKAAEKAGFKIVSISYDKENKEVTIVIEKKK, the “folding stability dG” value is 3.83 kcal/mol.
In the case of ILVTIKVPLENLEEIKKAAEKAGFKIVSISYDKENKEVTIVIEKKK, the “folding stability dG” value turned out to be 3.87 kcal/mol.
Under DLVTIKVPLENLEEIKKAAEKAGFKIVSISYDKENKEVTIAIEKKK stands 3.49 kcal/mol; under DLVTIKVPLENLEEIKKAAEKAGFKIVSISADKENKEVTIVIEKKK, 3.06 kcal/mol; under DLVTIKVPLENLEEIKKAAEKAGFKIVSISGDKENKEVTIVIEKKK, 2.76 kcal/mol.
Under DLVTIKVPLENLEEIKKAAEKAGFKIVIISYDKENKEVTIVIEKKK stands 3.39 kcal/mol; under DLVTIKVPLENLEEIKKAAEKAGFKIVSISYDKYNKEVTIVIEKKK, 3.81 kcal/mol.
